Measurements published in publication PMC7010297, “How the initiating ribosome copes with ppGpp to translate mRNAs” (PLoS Biology, 2020).
Where “and” joins values, the source holds several entries; their conditions need not be identical. Equal values may be shown once. Read-outs that look alike come from different tables or passages of the source.

How the values were obtained:
30S IC = 30S IC (Escherichia coli, UniProt P0A705); assay: ppGpp tolerance of 30S IC formation by MST; format: binding; set-up: 6xHis (N); made in house; details: 30S ICs with 4-fold excess of ppGpp (0.2 mM) over GTP vs without alarmone
Method: Fig 7 SETIs and ppGpp tolerance. (A) Translation initiation efficiency as a function of mRNAs along five steps of transition from NS to S conditions. […] Symbols and error bars represent averages of three replicates and standard deviations, respectively (S1 Data). (C) Comparison of ppGpp tolerance as calculated from the ratio of translation initiation efficiencies found in the presence of 0.2 mM ppGpp over the efficiencies obtained in the absence of the alarmone (S1 Data). […] All 30S IC components are as in Fig 1. Dashed line indicates the average tolerance of all mRNAs lacking the SETI element.

IF2-bound 30S IC = target: T1, IF2-bound 30S IC (Escherichia coli, UniProt P0A705); assay: 30S IC formation by MST, guanosine nucleotide titration; format: binding; details: for MST Average / MST Replicates: Fig 6E; for Kd: Fig 3F, GTP titration;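 as to MST Average: lower thermophoresis signal means Bpy-tRNAi dissociation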
T1 construct: 6xHis (N); made in house
Text: To monitor the interaction of initiator tRNA and 30S ribosomal subunits, we used Microscale Thermophoresis (MST) with a fluorescently labelled initiator tRNA (Bpy-tRNAi) (Fig 1B). MST allows to measure fluorescence in a constrained space. Changes on the readout derive from molecular drifts resulting from small thermal equilibrium perturbations. Upon equilibrium perturbations, the patterns of Bpy-tRNAi migration away from the observation space are related to bound and unbound states (Fig 1B). […] On the contrary, a decrease in thermophoresis indicated the dissociation of Bpy-tRNAi. The relation between fluorescence measured at both equilibriums (Ff to Fi, after and prior to the perturbation, respectively) as a function of ligand concentration allowed to determine dissociation constants of the interaction (Fig 1C).
Continuous lines indicate nonlinear regression fittings with a quadratic equation. Three measurements were performed; mean and standard deviation are plotted (S1 Data). (B) as (A) to measure the concentration dependence for each tested guanosine nucleotide at constant IF2 (1 μM). […] Continuous lines show best fits using exponential functions. (D) Formation of 70S IC as measured by Bpy-tRNAi accommodation in the P site of the ribosome; 0.1 μM 30S ICs were formed with Bpy-tRNAi and rapidly mixed with 0.3 μM 50S subunits on a stopped-flow apparatus as described in [14]. Colors are as in (C). Continuous lines show best fits using an exponential function for a single reaction step. Each stopped-flow trace results from the mean of 5 to 7 replicates.
MST was calculated from the respective fluorescence time dependencies (S3 Fig). […] Symbols as in (B). […] Continuous lines indicate nonlinear regression fittings with quadratic (B and E) or same-site competition (G) functions. Three measurements were performed; mean and standard deviations are plotted (S1 Data).

B1: mTufA: TufA mRNA with full-length 5′ UTR, in vitro transcribed, codes for EF-Tu (nucleic acid)
chain: GGUUCUAUCGCCUUUAAAGAAGGCUUUAAGAAAGCGAAACCAGUUCUGCUUGAGCCGAUCAUGAAGGUUGAAGUAGAAACUCCGGAAGAGAACACCGGUGACGUUAUCGGUGACUUGAGCCGUCGUCGUGGUAUGCUCAAAGGUCAGGAAUCUGAAGUUACUGGCGUUAAGAUCCACGCUGAAGUACCGCUGUCUGAAAUGUUCGGAUACGCAACUCAGCUGCGUUCUCUGACCAAAGGUCGUGCAUCAUACACUAUGGAAUUCCUGAAGUAUGAUGAAGCGCCGAGUAACGUUGCUCAGGCCGUAAUUGAAGCCCGUGGUAAAUAAGCCUAAGGGUUAAUACCAAAGUCCCGUGCUCUCUCCUGAAGGGGAGAGCACUAUAGUAAGGAAUAUAGCCGUGUCUAAAGAAAAAUUUGAACG
- ppGpp tolerance (30S IC): up to 25%
- MST Average (IF2-bound 30S IC; GTP 0.49 μM): 1014.52 a.u.
- MST Replicates (IF2-bound 30S IC; GTP 0.49 μM): 1011.10 a.u. and 1014.70 a.u. and 1017.78 a.u.
- MST Average (IF2-bound 30S IC; GTP 1.95 μM): 1035.39 a.u.
- MST Replicates (IF2-bound 30S IC; GTP 1.95 μM): 1032.39 a.u. and 1034.94 a.u. and 1038.85 a.u.
- MST Average (IF2-bound 30S IC; GTP 3.91 μM): 1049.68 a.u.
- MST Replicates (IF2-bound 30S IC; GTP 3.91 μM): 1044.99 a.u. and 1049.25 a.u. and 1054.80 a.u.
- MST Average (IF2-bound 30S IC; GTP 7.81 μM): 1070.36 a.u.
- MST Replicates (IF2-bound 30S IC; GTP 7.81 μM): 1070.17 a.u. and 1070.71 a.u. and 1070.18 a.u.
- Kd (IF2-bound 30S IC; read-out: Kd (μM) of GTP for the 30S IC programmed with the labelled mRNA, Average): 0.28 µM
- Kd (IF2-bound 30S IC; read-out: Kd (μM) of GTP for the 30S IC programmed with the labelled mRNA, single replicate): 0.3 µM and 0.27 µM
